Results on six molecules are retold here after paper PMC5610242, “Stapled peptide inhibitors of RAB25 target context-specific phenotypes in cancer” (Nature Communications, 2017).

The nature of data set [1]: Circular dichroism spectroscopy and thermal denaturation. The note with it: 50 μM peptide in deionized water, 190–260 nm, room temperature. The class given is physicochemical. The protocol:
Circular dichroism spectroscopy experiments were performed on a Jasco J-170 using a quartz cuvette (path length: 0.1 cm). Peptides were dissolved to 50 μM in deionized water and CD measurements were recorded at one nm increments between 190 and 260 nm, at room temperature. Thermal denaturation experiments were performed by recording CD absorbance at 222 nm at one-degree increments from 10 to 90 °C using a thermostat-controlled cuvette chamber. Raw denaturation data were fit to sigmoidal curves with Prizm 5 software, and the half-maximal temperature was reported as the peptide T m.
(In general: Circular dichroism is widely used to follow secondary structure.)

Data set [2] concerns the target T1, RAB25 (Homo sapiens, UniProt P57735).
T1 construct: GST-RAB25 (1–180) in pET41 Ek/LIC; made in house; host or cells: E. coli BL21
T1 sequence (P57735 1-180): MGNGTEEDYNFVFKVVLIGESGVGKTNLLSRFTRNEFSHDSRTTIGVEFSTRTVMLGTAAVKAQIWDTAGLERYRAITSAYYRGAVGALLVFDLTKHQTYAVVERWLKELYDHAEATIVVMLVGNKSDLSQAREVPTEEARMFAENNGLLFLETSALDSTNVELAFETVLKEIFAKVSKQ
Kind of data set: Fluorescence polarization binding of FITC-labeled RFP peptides to RAB25. The settings on record: FP, 30 min room temperature; for binding to RAB25 (in words): 25 nM FITC-RFP peptide. The protocol:
(§1) Fluorescence polarization assays were performed with for GST-RAB25 and GST-RAB11a to quantify binding to FITC-labeled unmodified and stapled RFP peptides. Initial fluorescence polarization measurements for RFP1−RFP13 were made by incubating FITC-RFP peptides (25 nM) with threefold dilutions of a given protein in FP buffer, consisting of 20 mM Tris pH 8.0, 150 mM NaCl, 5 mM MgCl2, 2 mM DTT, 10 μM GTP and 2% glycerol. Dilutions and incubations were performed in 96-well, black flat-bottom plates (Nunc) to a total volume of 100 μL, and equilibrated at room temperature for 30 min. Polarization was measured on a Spetramax-M5 multi-label plate reader (Molecular Devices) with λ ex = 485 nm and λ em = 525 nm. Polarization values were determined using the equation: P = (V − H)/(V + H), where P denotes polarization, V denotes vertical emission intensity and H represents horizontal emission intensity. Fraction bound was calculated using the equilibrium maximum polarization value obtained for a given protein among ligands, to which background-subtracted fluorescence polarization values were internally normalized. Fluorescence polarization measurements for FITC-RFP14, 24, 26, 31, and 32 were performed as detailed above with the exception that 10 nM FITC-ligand was used.
Background: In fluorescence polarisation assays a small probe gives low polarisation when free and higher when bound to something large.

In data set [3] the target is T2, RAB11a (activated Q70L mutant) (Homo sapiens, UniProt P62491, Q70L).
T2 construct: GST-RAB11a (1–173, Q70L mutant) in pGEX5x-1; made in house; host or cells: E. coli BL21
T2 sequence (P62491 1-173 Q70L): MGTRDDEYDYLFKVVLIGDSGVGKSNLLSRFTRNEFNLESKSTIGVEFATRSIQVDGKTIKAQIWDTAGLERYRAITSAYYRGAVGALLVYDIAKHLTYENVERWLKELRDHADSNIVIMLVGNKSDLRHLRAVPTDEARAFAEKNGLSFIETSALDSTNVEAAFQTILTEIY
Kind of data set: Fluorescence polarization binding of FITC-labeled RFP peptides to RAB11a. The note with it: FP, 25 nM FITC-RFP peptide, 30 min room temperature. On the procedure: as §1

For data set [4], the system named is MCF7 cells. Put plainly: Confocal fluorescence microscopy for peptide cellular penetration. The class given is in vitro ADME. The settings on record: 5 μM FITC-labeled peptide, 10% FBS-containing RPMI, 8 h, 37 °C. The protocol: MCF7 cells were grown in 8-well chamber slides (Ibidi) and treated with FITC-labeled RFPs (5 μM) in 10% FBS-containing RPMI for 8 h at 37 °C. Cells were washed 5× in PBS, fixed in 2% paraformaldehyde/PBS and stained with DAPI according to the manufacturer’s protocol (Sigma). A coverslip was mounted onto the slide and confocal fluorescence microscopy performed with an Olympus DSU spinning disk confocal microscope (Olympus Corporation of the Americas, Center Valley, PA) with a Hamamatsu model C9100 EM-CCD camera (Hamamatsu Photonics, Skokie, IL) run by SlideBook v5.0 software (Intelligent Imaging Innovations, Denver, CO). Post-acquisition processing (multi-channel overlay) was performed using ImageJ software (NIH). Results are representative of images taken from three fields across the same well in at least two biological replicates.

The target of data set [5] is T3, GST-RAB11a (1–173, Q70L mutant) (UniProt P62491 1-173, Q70L).
T3 construct: vector pGEX5x-1; 10 μM GTP in the assay buffer; source: BL21 cells, purified (glutathione sepharose, Superdex 75 gel filtration)
T3 sequence (looked up): T2 sequence (P62491 1-173 Q70L)
Put plainly: fluorescence polarisation; FITC-peptide 25 nM with threefold dilutions of GST-RAB protein; 20 mM Tris pH 8.0, 150 mM NaCl, 5 mM MgCl2, 2 mM DTT, 10 μM GTP, 2% glycerol; room temperature, 30 min; apparent Kd. The settings on record: both partners purified.

For data set [6], the target named is T4, GST-RAB11a (1-173, Q70L mutant) (UniProt P62491 1-173, Q70L).
T4 construct: source: E. coli BL21, purified (glutathione sepharose, Superdex 75 gel filtration)
T4 sequence (looked up): T2 sequence (P62491 1-173 Q70L)
Kind of data set: fluorescence polarisation; as for RFP1-13 but FITC-ligand 10 nM, with threefold dilutions of GST-RAB protein; 20 mM Tris pH 8.0, 150 mM NaCl, 5 mM MgCl2, 2 mM DTT, 10 µM GTP, 2% glycerol; room temperature, 30 min; apparent Kd from a sigmoidal (4-parameter) fit, 95% confidence interval. The settings on record: both partners purified.

Data set [7] has as its target T5, GST-RAB25 (1-180) (UniProt P57735 1-180).
T5 construct: RAB25, residues 1-180, in pET41 Ek/LIC; source: E. coli BL21, purified (glutathione sepharose, Superdex 75 gel filtration)
T5 sequence (looked up): T1 sequence (P57735 1-180)
Described as above. The note with it: both partners purified.

In data set [8] the target is T6, His6-RAB25 (1–180) (UniProt P57735 1-180).
T6 chain: T1 sequence (P57735 1-180)
Put plainly: competition with bio-RFP14 (ALPHAscreen). (In general: Bead proximity is the source of the signal in Alpha formats.)

Data set [9] concerns the target T7, His6-RAB25 (1–180) (UniProt P57735 1-180).
T7 construct: RAB25, residues 1-180; vector pET28; also called H6-RAB25; His6-labeled RAB25; source: BL21 cells, purified (Ni-NTA, Superdex 75 gel filtration)
T7 sequence (looked up): T1 sequence (P57735 1-180)
Put plainly: AlphaScreen or HTRF; competition: soluble peptide or protein at varied concentration with biotin-RFP14 and H6-RAB25 (0.2 μM each); streptavidin donor and Ni2+-NTA acceptor beads; FP buffer with 0.1% BSA; room temperature. The note with it: both partners purified.

Bridge positions count the residues as written; N and C are the ends. Square brackets hold non-standard residues; d marks the D form. Ends that are not written are not given here. Peptide text beside a SMILES is read from it. * marks the point of attachment. FITC = O=C1OC2(c3ccc(O)cc3Oc3cc(O)ccc32)c2ccc(NC(=S)*)cc21; monoethylene glycol = monoethylene glycol moiety; Met(O) = CS(=O)CC[C@H](N)C(=O)O; S5 = C=CCCC[C@](C)(N)C(=O)O; Nle = CCCC[C@H](N)C(=O)O; PEG = not defined here; βAla = NCCC(=O)O

On to “RFP4: unmodified FIP4 peptide ({FITC-PEG}-EQEEINFRLRQYMDKIILAILDHNPSILEIKH; reading uncertain)”, for which, in data set [1], the “CD spectrum, secondary structure” value was “partially disordered peptide folds”. For the same molecule, the “binding to RAB25 (in words)” value in data set [2] was “micromolar affinities”. The “binding to RAB11a (in words)” value in [3] was “micromolar affinities”.

Take “KQEEINFRLQDYIDRIIVAIMETNPSILEVK-NH2 (C-terminus assumed) [RFP3]”: in [1], the “CD spectrum, secondary structure” value is recorded as “β-sheet”. The “binding to RAB25 (in words)” value in [2] is “micromolar affinities”. Moreover, in [3], the “binding to RAB11a (in words)” value is on record as “micromolar affinities”.

Regarding `CCCC[C@@H]1NC(=O)[C@H](C(C)C)NC(=O)[C@@](C)(NC(=O)[C@@H](NC(=O)[C@H](CC(C)C)NC(=O)[C@H](CC(C)C)NC(=O)[C@H](CCCNC(=N)N)NC(=O)[C@H](CC(=O)O)NC(=O)[C@@H](NC(=O)[C@H](Cc2ccc(O)cc2)NC(=O)[C@H](CC(N)=O)NC(=O)[C@H](CCC(=O)O)NC(=O)[C@H](CC(C)C)NC(=O)[C@H](CCC(=O)O)NC(=O)[C@H](CCCNC(=N)N)NC(=O)[C@@H](NC(=O)[C@H](CCC(N)=O)NC(=O)[C@H](CCCNC(=N)N)NC(=O)CCNC(=O)[C@@H](N)Cc2c[nH]c3ccccc23)C(C)C)[C@@H](C)CC)C(C)C)CCCC=CCCC[C@@](C)(C(=O)N[C@H](C(=O)N2CCC[C@H]2C(=O)N[C@@H](CC(N)=O)C(=O)N[C@H](C(=O)N[C@@H](CC(C)C)C(=O)N[C@@H](CCCNC(=N)N)C(=O)N[C@H](C(=O)N2CCC[C@H]2C(=O)N[C@@H](CCCNC(=N)N)C(N)=O)[C@@H](C)CC)[C@@H](C)CC)[C@@H](C)O)NC(=O)[C@H](CCC(=O)O)NC1=O` [RFP14] (H-W[βAla]RQVRELENYIDRLLV[S5]V[Nle]E[S5]TPNILRIPR-NH2; staple 18-22), in [2] (10 nM FITC-ligand, GST-RAB25, FP buffer pH 8.0 with 10 μM GTP, mean with 95% C.I., triplicate, read-out: apparent Kd (95% C.I.) RAB25), the Kd was found to be 40 nM. Also, the “cellular uptake and distribution” value in data set [4] is “significant cellular uptake and distribution throughout the cytosol and nucleus”; in data set [4] (listed as FITC-RFP14), “comparable cellular uptake”.

For {FITC-monoethylene glycol}-KQEEINFRLQDYIDRIIVAI[Met(O)]ETNPSILEVK [RFP5], the “fold lower affinity than the unoxidised peptide” value in [5] was around 5 fold.

For {FITC-PEG-βAla}-RINFRLQN[S5]IDR[S5]IVRI[Nle]ETNPSILRVK (staple 9-13; reading uncertain) [FITC-RFP26 (optimized stapled peptide, 'IDR' staple)], the Kd in data set [6] was 90 nM; in data set [7], 20 nM.

B1: GST-FIP3 (649–756) (domain or fragment, UniProt O75154 649-756, looked up)
chain: MGLQEYHSRARESELEQEVRRLKQDNRNLKEQNEELNGQIITLSIQGAKSLFSTAFSESLAAEISSVSRDELMEAIQKQEEINFRLQDYIDRIIVAIMETNPSILEVK
notes: Rab11-FIP3 (Class-II FIP), residues 649-756; vector pGEX 6P-1; no cleavage of GST is described; also called FIP3 protein (residues 649–756); source: BL21 cells, purified (glutathione sepharose, Superdex 75 gel filtration)
Broadly, the IC50 is the concentration needed to halve the response being measured. In data set [8], B1 returned a 50% inhibitory concentration (IC50) above 10000 nM. The binding result in data set [9] is on record as “binds”.
